Reference: PMC4242096 (Nature structural & molecular biology, 2013)
Substitutions are numbered along the chain they refer to. Names may count otherwise. Non-standard residues stand in square brackets, D forms with d. No end group written: not given here. pY = N[C@@H](Cc1ccc(OP(=O)(O)O)cc1)C(=O)O; pT = C[C@@H](OP(=O)(O)O)[C@H](N)C(=O)O; pS = N[C@@H](COP(=O)(O)O)C(=O)O

T1: S. cerevisiae Cks (Cks1) (Saccharomyces cerevisiae, UniProt P20486)
T1 sequence (P20486 1-150): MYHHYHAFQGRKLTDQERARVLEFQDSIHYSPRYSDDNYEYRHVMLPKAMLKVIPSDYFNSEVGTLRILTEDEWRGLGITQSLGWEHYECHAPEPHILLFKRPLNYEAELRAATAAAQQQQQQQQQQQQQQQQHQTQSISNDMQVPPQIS

T2: Cdc6^(1–48;T23A T39A S43A), only T7 phosphorylated (UniProt P09119 1-48, T23A | T39A | S43A, only T7 phosphorylated)
T2 chain (looked up): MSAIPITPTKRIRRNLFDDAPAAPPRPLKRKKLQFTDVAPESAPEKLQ

T3: Cdc6^(1–48;T7A T39A S43A), only T23 phosphorylated (UniProt P09119 1-48, T7A | T39A | S43A, only T23 phosphorylated)
T3 chain (looked up): T2 chain (looked up) with T7A, A23T

B1: S. cerevisiae Cks (Cks1), wild type (natural protein, UniProt P20486 1-150, looked up)
chain: T1 sequence (P20486 1-150)

What was measured:
S. cerevisiae Cks (Cks1) = molecular target: T1, S. cerevisiae Cks (Cks1); experiment: Isothermal titration calorimetry; format: binding; details: ITC; for Cks1 Kd (µM): phosphorylated Cdk substrate peptides, value ± error as printed
[1] = molecular target: phosSic1 N-terminus N-terminus (Saccharomyces cerevisiae) (UniProt P38634); details: cited from earlier work
[2] = molecular target: phosSic1ΔC ΔC (Saccharomyces cerevisiae) (UniProt P38634); details: cited from earlier work
phosphorylated Cdc6^1–48 = phosphorylated Cdc6^1–48 (UniProt P09119); experiment: ITC
[3] = molecular target: T2, Cdc6^(1–48;T23A T39A S43A), only T7 …; experiment: ITC
[4] = molecular target: T3, Cdc6^(1–48;T7A T39A S43A), only T23 …; experiment: ITC
[5] = molecular target: B1; experiment: ITC

Sequence of phosSic1ΔC ΔC (Saccharomyces cerevisiae) (P38634 1-215, stated change not applied): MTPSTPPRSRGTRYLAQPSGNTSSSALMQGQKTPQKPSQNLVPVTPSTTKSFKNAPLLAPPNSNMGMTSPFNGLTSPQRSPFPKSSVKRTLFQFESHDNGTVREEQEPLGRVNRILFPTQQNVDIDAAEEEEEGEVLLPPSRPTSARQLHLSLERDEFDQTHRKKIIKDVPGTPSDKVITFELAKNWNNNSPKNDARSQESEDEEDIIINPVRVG
Sequence of phosSic1 N-terminus N-terminus (Saccharomyces cerevisiae) (P38634 1-100): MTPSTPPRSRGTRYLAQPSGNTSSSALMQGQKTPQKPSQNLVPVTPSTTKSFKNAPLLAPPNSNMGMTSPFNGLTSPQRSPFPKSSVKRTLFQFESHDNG

SAIPI[pS]PTK [phosCdc6^2–10; pT7pS]
Cks1 Kd (µM) (S. cerevisiae Cks (Cks1)): no heat

SAIPI[pY]PTK [phosCdc6^2–10; pT7pY]
Cks1 Kd (µM) (S. cerevisiae Cks (Cks1)): no heat

phosCdc6^1–48: purified N-terminal domain of Cdc6 (residues 1–48) phosphorylated with recombinant Cdk (MSAIPI[pT]PTKRIRRNLFDDAPA[pT]PPRPLKRKKLQFTDV[pT]PES[pS]PEKLQ)
stoichiometry parameter n (Cks1 molecules per Cdc6 molecule) (S. cerevisiae Cks (Cks1); data fit to a one site model): ≈ 2

Cks1 (from UniProt P20486)
Kd [1]: 11 µM
Kd [2]: 20 µM

S. cerevisiae Cks (Cks1), wild type (from UniProt P20486 1-150) (natural protein)
Kd (phosphorylated Cdc6^1–48): 9.8 µM
stoichiometry N (phosphorylated Cdc6^1–48): 2

B1
stoichiometry N [3]: ~1
stoichiometry N [4]: ~1

TPS[pT]PKRS [phosSic1^(2–9; P7K)]
Kd [5]: 120 ± 20 µM

ESVT[pT]PIT [phosSwe1^117–124]
Kd [5]: 170 ± 90 µM

SAIPI[pT]PTK [phosCdc6^2–10]
Kd [5]: 130 ± 60 µM

TYS[pT]PPRS [phosSic1^(2–9; P3Y)]
Kd [5]: 90 ± 50 µM

EEIS[pT]PTR [phosSwe1^369–376]
Kd [5]: 160 ± 70 µM

AIPI[pT]PT [phosCdc6^3–9]
Kd [5]: 61 ± 9 µM

TPS[pT]PPRS [phosSic1^2–9]
Kd [5]: 95 ± 8 µM

RIPE[pT]PVK [phosSwe1^192–199]
Kd [5]: 60 ± 10 µM

TPS[pT]PTRS [phosSic1^(2–9; P7T)]
Kd [5]: 70 ± 20 µM

SAIPI[pT]P [phosCdc6^2–8]
Kd [5]: 62 ± 2 µM

AIPI[pT]P [phosCdc6^3–8]
Kd [5]: 81 ± 6 µM
